According to paper PMC6254359, “A helical LC3-interacting region mediates the interaction between the retroviral restriction factor Trim5α and mammalian autophagy-related ATG8 proteins” (The Journal of Biological Chemistry, 2018):

Tests used:
[1] = target: the molecule itself; assay: AUC; sedimentation velocity, c(s) analysis of each protein alone at 20 μM; 20 °C; 10 mM Tris/HCl pH 8, 150 mM NaCl, 0.1 mM TCEP
LC3B I23R = LC3B I23R (UniProt Q9GZQ8 2-119, Ile23 to arginine); assay: AUC; sedimentation velocity, c(s) analysis of equimolar mixtures, 20 μM each; 20 °C, 50,000 rpm; 10 mM Tris/HCl pH 8, 150 mM NaCl, 0.1 mM TCEP; shift of the fast-moving peak; conditions: both partners purified
LC3B H27A = LC3B H27A (UniProt Q9GZQ8 2-119, His27 to alanine); assay: as above; conditions: both partners purified
GABARAPL1 = target: T1, GABARAPL1 (UniProt Q9H0R8 1-117); assay: AUC; sedimentation velocity, 20 μM RhT5 88–296 EK/RD with 0–320 μM LC3B or GABARAPL1; S value of the fast peak against concentration, one-site binding model; 20 °C; 10 mM Tris/HCl pH 8, 150 mM NaCl, 0.1 mM TCEP; conditions: both partners purified
T1 construct: also called mATG8 isoform GABARAPL1

[2] = target: autophagy-related protein LC3 B (LC3B), construct 2–119 (UniProt Q9GZQ8 2-119); assay: AUC; sedimentation velocity, c(s) analysis of equimolar mixtures, 20 μM each; 20 °C, 50,000 rpm; 10 mM Tris/HCl pH 8, 150 mM NaCl, 0.1 mM TCEP; shift of the fast-moving peak; conditions: both partners purified
[3] = target: the molecule itself; assay: SEC-MALS + AUC; Trim5α mutants alone; SEC–MALLS on Superdex 75 Increase 10/300 in 10 mM Tris/HCl pH 7.8, 150 mM NaCl, 0.1 mM TCEP, 3 mM azide, and c(s) analysis of sedimentation velocity

Binder | binding result [2] | stoichiometry N [3] | other results
Trim5α from Rhesus macaque, Bbox coiled-coil regions, residues 88–296 with the E120K/R121D mutation (domain or fragment, UniProt Q0PF16 88-296, looked up) PEEGQKVDHCARHGEKLLLFCQEDSKVICWLCKDSQEHRGHHTFLMEEVAQEYHVKLQTALEMLRQKQQEAEKLEADIREEKASWKIQIDYDKTNVSADFEQLREILDWEESNELQNLEKEEEDILKSLTKSETEMVQQTQYMRELISELEHRLQGSMMDLLQGVDGIIKRIENMTLKKPKTFHKNQRRVFRAPDLKGMLDMFRELTDA | – | – | stoichiometry N [1]: 2; binding result (LC3B I23R): binds; binding result (LC3B H27A): binds; Kd (GABARAPL1): 78 ± 6 µM
RhT5 88–296 EK/RD Q189A (domain or fragment, Rhesus macaque, UniProt Q0PF16 88-296, looked up) PEEGQKVDHCARHGEKLLLFCQEDSKVICWLCKDSQEHRGHHTFLMEEVAQEYHVKLQTALEMLRQKQQEAEKLEADIREEKASWKIQIDYDKTNVSADFEALREILDWEESNELQNLEKEEEDILKSLTKSETEMVQQTQYMRELISELEHRLQGSMMDLLQGVDGIIKRIENMTLKKPKTFHKNQRRVFRAPDLKGMLDMFRELTDA | binds | 2 | –
RhT5 88–296 EK/RD E192K (domain or fragment, Rhesus macaque, UniProt Q0PF16 88-296, looked up) PEEGQKVDHCARHGEKLLLFCQEDSKVICWLCKDSQEHRGHHTFLMEEVAQEYHVKLQTALEMLRQKQQEAEKLEADIREEKASWKIQIDYDKTNVSADFEQLRKILDWEESNELQNLEKEEEDILKSLTKSETEMVQQTQYMRELISELEHRLQGSMMDLLQGVDGIIKRIENMTLKKPKTFHKNQRRVFRAPDLKGMLDMFRELTDA | – | 2 | –
RhT5 88–296 EK/RD E192A (domain or fragment, Rhesus macaque, UniProt Q0PF16 88-296, looked up) PEEGQKVDHCARHGEKLLLFCQEDSKVICWLCKDSQEHRGHHTFLMEEVAQEYHVKLQTALEMLRQKQQEAEKLEADIREEKASWKIQIDYDKTNVSADFEQLRAILDWEESNELQNLEKEEEDILKSLTKSETEMVQQTQYMRELISELEHRLQGSMMDLLQGVDGIIKRIENMTLKKPKTFHKNQRRVFRAPDLKGMLDMFRELTDA | – | 2 | –
RhT5 88–296 EK/RD Q203A (domain or fragment, Rhesus macaque, UniProt Q0PF16 88-296, looked up) PEEGQKVDHCARHGEKLLLFCQEDSKVICWLCKDSQEHRGHHTFLMEEVAQEYHVKLQTALEMLRQKQQEAEKLEADIREEKASWKIQIDYDKTNVSADFEQLREILDWEESNELANLEKEEEDILKSLTKSETEMVQQTQYMRELISELEHRLQGSMMDLLQGVDGIIKRIENMTLKKPKTFHKNQRRVFRAPDLKGMLDMFRELTDA | binds | 2 | –
RhT5 88–296 EK/RD E206K (domain or fragment, Rhesus macaque, UniProt Q0PF16 88-296, looked up) PEEGQKVDHCARHGEKLLLFCQEDSKVICWLCKDSQEHRGHHTFLMEEVAQEYHVKLQTALEMLRQKQQEAEKLEADIREEKASWKIQIDYDKTNVSADFEQLREILDWEESNELQNLKKEEEDILKSLTKSETEMVQQTQYMRELISELEHRLQGSMMDLLQGVDGIIKRIENMTLKKPKTFHKNQRRVFRAPDLKGMLDMFRELTDA | – | 2 | –
W196A RhT5 88–296 EK/RD (domain or fragment, Rhesus macaque, UniProt Q0PF16 88-296, looked up) PEEGQKVDHCARHGEKLLLFCQEDSKVICWLCKDSQEHRGHHTFLMEEVAQEYHVKLQTALEMLRQKQQEAEKLEADIREEKASWKIQIDYDKTNVSADFEQLREILDAEESNELQNLEKEEEDILKSLTKSETEMVQQTQYMRELISELEHRLQGSMMDLLQGVDGIIKRIENMTLKKPKTFHKNQRRVFRAPDLKGMLDMFRELTDA | – | 2 | –
RhT5 88–296 EK/RD E197A (domain or fragment, Rhesus macaque, UniProt Q0PF16 88-296, looked up) PEEGQKVDHCARHGEKLLLFCQEDSKVICWLCKDSQEHRGHHTFLMEEVAQEYHVKLQTALEMLRQKQQEAEKLEADIREEKASWKIQIDYDKTNVSADFEQLREILDWAESNELQNLEKEEEDILKSLTKSETEMVQQTQYMRELISELEHRLQGSMMDLLQGVDGIIKRIENMTLKKPKTFHKNQRRVFRAPDLKGMLDMFRELTDA | binds | 2 | –
RhT5 88–296 EK/RD E206A (domain or fragment, Rhesus macaque, UniProt Q0PF16 88-296, looked up) PEEGQKVDHCARHGEKLLLFCQEDSKVICWLCKDSQEHRGHHTFLMEEVAQEYHVKLQTALEMLRQKQQEAEKLEADIREEKASWKIQIDYDKTNVSADFEQLREILDWEESNELQNLAKEEEDILKSLTKSETEMVQQTQYMRELISELEHRLQGSMMDLLQGVDGIIKRIENMTLKKPKTFHKNQRRVFRAPDLKGMLDMFRELTDA | – | 2 | –
RhT5 88–296 EK/RD E198K (domain or fragment, Rhesus macaque, UniProt Q0PF16 88-296, looked up) PEEGQKVDHCARHGEKLLLFCQEDSKVICWLCKDSQEHRGHHTFLMEEVAQEYHVKLQTALEMLRQKQQEAEKLEADIREEKASWKIQIDYDKTNVSADFEQLREILDWEKSNELQNLEKEEEDILKSLTKSETEMVQQTQYMRELISELEHRLQGSMMDLLQGVDGIIKRIENMTLKKPKTFHKNQRRVFRAPDLKGMLDMFRELTDA | binds | 2 | –
